Key:
[1] = target: Rhodobacter capsulatus FdsC (R. capsulatus); assay: SEC; size exclusion chromatography of the Ni-NTA purified chaperones alone; data not shown
[2] = target: Rhodobacter capsulatus FdsC-C104A/C107A (R. capsulatus); assay: as above
[3] = target: Rhodobacter capsulatus FdsC-C104A (R. capsulatus); assay: as above
[4] = target: Rhodobacter capsulatus FdsC-C107A (R. capsulatus); assay: as above
[5] = target: the molecule itself; assay: as above
[6] = target: T1, Escherichia coli L-cysteine desulfurase IscS (E. coli, UniProt P0A6B7 1-404); assay: SEC; 20 μM IscS mixed with 40 μM FdhD or FdsC (or double cysteine variant), 30 min at room temperature, Superdex 200 (Increase), 100 mM potassium phosphate pH 8.0 (legend: with 100 mM NaCl, 10 mM β-mercaptoethanol), 280 nm; fractions on 15% SDS-PAGE; conditions: both partners purified
T1 construct: IscS, L-cysteine desulfurase of Escherichia coli; iscS gene cloned into NcoI/BamHI sites of pET15b (pSL209); also called E. coli IscS; source: recombinant (plasmid pSL209), expressed and purified as described previously [33, 46]
T1 sequence (P0A6B7 whole entry): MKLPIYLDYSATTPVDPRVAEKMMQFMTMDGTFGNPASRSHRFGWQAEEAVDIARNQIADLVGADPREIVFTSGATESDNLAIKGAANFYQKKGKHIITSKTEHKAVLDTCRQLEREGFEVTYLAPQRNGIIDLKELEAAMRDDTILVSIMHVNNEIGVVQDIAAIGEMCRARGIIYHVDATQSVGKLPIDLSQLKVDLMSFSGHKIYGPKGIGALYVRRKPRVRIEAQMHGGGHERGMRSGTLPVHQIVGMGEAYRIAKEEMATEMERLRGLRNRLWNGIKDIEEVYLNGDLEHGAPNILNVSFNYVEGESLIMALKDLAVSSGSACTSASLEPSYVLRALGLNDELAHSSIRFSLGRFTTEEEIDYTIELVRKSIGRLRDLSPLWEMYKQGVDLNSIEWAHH

Molecule: Rhodobacter capsulatus FdsC (natural protein)
- stoichiometry N [1]: 2

Molecule: Rhodobacter capsulatus FdsC-C104A/C107A (natural protein)
- stoichiometry N [2]: 2

Molecule: Rhodobacter capsulatus FdsC-C104A (natural protein)
- stoichiometry N [3]: 2

Molecule: Rhodobacter capsulatus FdsC-C107A (natural protein)
- stoichiometry N [4]: 2

B1: Escherichia coli FdhD (natural protein, E. coli)
chain: MKKTQRKEIENVTNITGVRQIELWRRDDLQHPRLDEVAEEVPVALVYNGISHVVMMASPKDLEYFALGFSLSEGIIESPRDIFGMDVVPSCNGLEVQIELSSRRFMGLKERRRALAGRTGCGVCGVEQLNDIGKPVQPLPFTQTFDLNKLDDALRHLNDFQPVGQLTGCTHAAAWMLPSGELVGGHEDVGRHVALDKLLGRRSQEGESWQQGAVLVSSRASYEMVQKSAMCGVEILFAVSAATTLAVEVAERCNLTLVGFCKPGRATVYTHPQRLSN
notes: FdhD, FDH-specific chaperone of Escherichia coli; fdhD gene in pTrcHis (pNB10); His6-tagged FdhD has a molecular mass of 32.7 kDa; also called FdhD wild-type; FdhD WT; source: E. coli ΔfdhD strain (plasmid pNB10), purified (Ni-NTA)
- stoichiometry N [5]: 2
- binding result [6]: binds

B2: Escherichia coli FdhD-C121A (natural protein, E. coli)
chain: MKKTQRKEIENVTNITGVRQIELWRRDDLQHPRLDEVAEEVPVALVYNGISHVVMMASPKDLEYFALGFSLSEGIIESPRDIFGMDVVPSCNGLEVQIELSSRRFMGLKERRRALAGRTGAGVCGVEQLNDIGKPVQPLPFTQTFDLNKLDDALRHLNDFQPVGQLTGCTHAAAWMLPSGELVGGHEDVGRHVALDKLLGRRSQEGESWQQGAVLVSSRASYEMVQKSAMCGVEILFAVSAATTLAVEVAERCNLTLVGFCKPGRATVYTHPQRLSN
notes: FdhD of Escherichia coli with C121A; fdhD^C121A gene in pTrcHis (pNB11); Made from pNB10 by site-directed mutagenesis; also called His6-FdhD^C121A; source: E. coli ΔfdhD strain (plasmid pNB11), purified (Ni-NTA)
- stoichiometry N [5]: 2

B3: Escherichia coli FdhD-C124A (natural protein, E. coli)
chain: MKKTQRKEIENVTNITGVRQIELWRRDDLQHPRLDEVAEEVPVALVYNGISHVVMMASPKDLEYFALGFSLSEGIIESPRDIFGMDVVPSCNGLEVQIELSSRRFMGLKERRRALAGRTGCGVAGVEQLNDIGKPVQPLPFTQTFDLNKLDDALRHLNDFQPVGQLTGCTHAAAWMLPSGELVGGHEDVGRHVALDKLLGRRSQEGESWQQGAVLVSSRASYEMVQKSAMCGVEILFAVSAATTLAVEVAERCNLTLVGFCKPGRATVYTHPQRLSN
notes: FdhD of Escherichia coli with C124A; fdhD^C124A gene in pTrcHis (pNB12); Made from pNB10 by site-directed mutagenesis; also called His6-FdhD^C124A; source: E. coli ΔfdhD strain (plasmid pNB12), purified (Ni-NTA)
- stoichiometry N [5]: 2

B4: Escherichia coli FdhD-C121A/C124A (natural protein, E. coli)
chain: MKKTQRKEIENVTNITGVRQIELWRRDDLQHPRLDEVAEEVPVALVYNGISHVVMMASPKDLEYFALGFSLSEGIIESPRDIFGMDVVPSCNGLEVQIELSSRRFMGLKERRRALAGRTGAGVAGVEQLNDIGKPVQPLPFTQTFDLNKLDDALRHLNDFQPVGQLTGCTHAAAWMLPSGELVGGHEDVGRHVALDKLLGRRSQEGESWQQGAVLVSSRASYEMVQKSAMCGVEILFAVSAATTLAVEVAERCNLTLVGFCKPGRATVYTHPQRLSN
notes: FdhD of Escherichia coli with C121A and C124A; fdhD^C121A/C124A gene in pTrcHis (pNB13); Made from pNB10 by site-directed mutagenesis; also called FdhD-C121/C124A; double variant; source: E. coli ΔfdhD strain (plasmid pNB13), purified (Ni-NTA)
- stoichiometry N [5]: 2
- binding result [6]: binds

Source: publication PMC6239281, “Same but different: Comparison of two system-specific molecular chaperones for the maturation of formate dehydrogenases” (PLoS ONE, 2018)
